Biological target: rat MHC class II molecules on Lewis rat splenic adherent cells (antigen presenting cells) (rat)
Assay: competition with 10 µM biotin-labeled MBP (87-99) for binding to OX-6/OX-17 positive rat splenic adherent cells, flow cytometry

- IC50: 21 µM
Substance: MBP (87-99) peptide analogue with alanine at position 91 (91K>A)

Reference: US6740638
